Reference: article PMC11672854, “A High-Affinity Monoclonal Antibody Against the Pancreatic Ductal Adenocarcinoma Target, Anterior Gradient-2 (AGR2/PDIA17)” (Antibodies, 2024)

T1: LY6/PLAUR Domain Containing 3, LYPD3 (31-325) with C-terminal 6x-His tag (UniProt O95274 31-325)
T1 construct: LY6/PLAUR Domain Containing 3 (LYPD3, C4.4A), residues 31-325; also called C4.4A; source: expi293F, transfected, secreted, purified from media (HisTrap Excel); not shown: His6, C-terminal, kept
T1 sequence (looked up): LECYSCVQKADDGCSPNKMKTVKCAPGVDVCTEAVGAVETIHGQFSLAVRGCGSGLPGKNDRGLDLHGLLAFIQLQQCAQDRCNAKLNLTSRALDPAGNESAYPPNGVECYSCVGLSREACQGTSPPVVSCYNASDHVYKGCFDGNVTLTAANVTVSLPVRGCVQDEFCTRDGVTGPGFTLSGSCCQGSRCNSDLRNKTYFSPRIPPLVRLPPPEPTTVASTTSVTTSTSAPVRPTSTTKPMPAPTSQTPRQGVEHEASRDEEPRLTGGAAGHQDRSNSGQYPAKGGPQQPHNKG


How the values were obtained:
[1] = molecular target: T2, Anterior Gradient-2 (AGR2/PDIA17), AGR2 (21-175), 6x-His tag removed (human, UniProt O95994)
[2] = molecular target: T2, Anterior Gradient-2 (AGR2/PDIA17), AGR2 …; experiment: ELISA; MaxiSorp plates coated with 1 µg AGR2 (wild type or mutant), PDI, TXN or BSA; varying MAb in 50 mM Tris, 140 mM NaCl, 1% BSA, 0.05% Tween 20, pH 8.0, 1 h at 37 °C; detection with Protein L-peroxidase; conditions: both partners purified
[3] = molecular target: T1, LY6/PLAUR Domain Containing 3, LYPD3 …; experiment: ELISA; MaxiSorp plates coated with 1 µg AGR2 (or BSA); varying LYPD3 in 50 mM Tris, 140 mM NaCl, 1% BSA, 0.05% Tween 20, pH 8.0, 1 h at 37 °C; detection with anti-6x-His-peroxidase; conditions: both partners purified

EC50 [2] [nM] | Binder | other results
 | S31R/A53Y/T59P (antibody, V domains shown) VH: EVQLLESGGGLVQPGGSLRLSCAASGFTFSRYAMSWVRQAPGKGLEWVSGISYQGAHTPYADSVKGRFTISRDNSKNTLYLQMNSLRAEDTAVYYCAKTYKGFDYWGQGTLVTVSS VL: DIQMTQSPSSLSASVGDRVTITCRASQSISSYLNWYQQKPGKAPKLLIYSASRLQSGVPSRFSGSGSGTDFTLTISSLQPEDFATYYCQQGRRMPPTFGQGTKVEIK | binding result [1]: binds
 | S31R/A53F/T59P (antibody, V domains shown) VH: EVQLLESGGGLVQPGGSLRLSCAASGFTFSRYAMSWVRQAPGKGLEWVSGISFQGAHTPYADSVKGRFTISRDNSKNTLYLQMNSLRAEDTAVYYCAKTYKGFDYWGQGTLVTVSS VL: DIQMTQSPSSLSASVGDRVTITCRASQSISSYLNWYQQKPGKAPKLLIYSASRLQSGVPSRFSGSGSGTDFTLTISSLQPEDFATYYCQQGRRMPPTFGQGTKVEIK | binding result [1]: binds
2.03 | anti-AGR2 monoclonal antibody MAb-15 (VH-VL of scFv-15 in a full human IgG1 backbone) (antibody, V domains shown, VH of scFv-15 (as the VH of m3); human IgG1 heavy chain constant region (full human IgG1 backbone); VL of scFv-15 (as the VL of m3); light chain constant region; IgG1; also called original anti-AGR2 antibody; parent MAb-15; source: expi293F, transfected, purified from media (rProteinA)) VH: EVQLLESGGGLVQPGGSLRLSCAASGFTFSSYAMSWVRQAPGKGLEWVSGISAQGAHTTYADSVKGRFTISRDNSKNTLYLQMNSLRAEDTAVYYCAKTYKGFDYWGQGTLVTVSS VL: DIQMTQSPSSLSASVGDRVTITCRASQSISSYLNWYQQKPGKAPKLLIYSASRLQSGVPSRFSGSGSGTDFTLTISSLQPEDFATYYCQQGRRMPPTFGQGTKVEIK | 
0.0404 | affinity-matured anti-AGR2 MAb S31R/A53Y (VH mutant of MAb-15, human IgG1) (antibody, V domains shown, as the VH of m4 (scFv-15) with the stated changes; human IgG1 heavy chain constant region; IgG1; also called anti-AGR2 MAb clone S31R/A53Y; source: expi293F, transfected, purified from media (rProteinA)) VH: EVQLLESGGGLVQPGGSLRLSCAASGFTFSRYAMSWVRQAPGKGLEWVSGISYQGAHTTYADSVKGRFTISRDNSKNTLYLQMNSLRAEDTAVYYCAKTYKGFDYWGQGTLVTVSS VL: DIQMTQSPSSLSASVGDRVTITCRASQSISSYLNWYQQKPGKAPKLLIYSASRLQSGVPSRFSGSGSGTDFTLTISSLQPEDFATYYCQQGRRMPPTFGQGTKVEIK | 
0.156 | affinity-matured anti-AGR2 MAb S31R (VH mutant of MAb-15, human IgG1) (antibody, V domains shown, as the VH of m4 (scFv-15) with the stated change; human IgG1 heavy chain constant region; IgG1; source: expi293F, transfected, purified from media (rProteinA)) VH: EVQLLESGGGLVQPGGSLRLSCAASGFTFSRYAMSWVRQAPGKGLEWVSGISAQGAHTTYADSVKGRFTISRDNSKNTLYLQMNSLRAEDTAVYYCAKTYKGFDYWGQGTLVTVSS VL: DIQMTQSPSSLSASVGDRVTITCRASQSISSYLNWYQQKPGKAPKLLIYSASRLQSGVPSRFSGSGSGTDFTLTISSLQPEDFATYYCQQGRRMPPTFGQGTKVEIK | 
0.0385 | affinity-matured anti-AGR2 MAb S31R/A53F (VH mutant of MAb-15, human IgG1) (antibody, V domains shown, as the VH of m4 (scFv-15) with the stated changes; human IgG1 heavy chain constant region; IgG1; source: expi293F, transfected, purified from media (rProteinA)) VH: EVQLLESGGGLVQPGGSLRLSCAASGFTFSRYAMSWVRQAPGKGLEWVSGISFQGAHTTYADSVKGRFTISRDNSKNTLYLQMNSLRAEDTAVYYCAKTYKGFDYWGQGTLVTVSS VL: DIQMTQSPSSLSASVGDRVTITCRASQSISSYLNWYQQKPGKAPKLLIYSASRLQSGVPSRFSGSGSGTDFTLTISSLQPEDFATYYCQQGRRMPPTFGQGTKVEIK | 
 | Anterior Gradient-2 (AGR2/PDIA17), AGR2 (21-175), 6x-His tag removed (natural protein, human, UniProt O95994 21-175, looked up, Anterior Gradient-2 (AGR2/PDIA17), human, residues 21-175; tag removed with 8x-His-TEV; also called rAGR2; recombinant AGR2; source: E. coli BL21(DE3), purified (HisTrap, TEV cleavage, second HisTrap flow-through); not shown: His6, N-terminal, cleaved) RDTTVKPGAKKDTKDSRPKLPQTLSRGWGDQLIWTQTYEEALYKSKTSNKPLMIIHHLDECPHSQALKKVFAENKEIQKLAEQFVLLNLVYETTDKHLSPDGQYVPRIMFVDPSLTVRADITGRYSNRLYAYEPADTALLLDNMKKALKLLKTEL | binding result [3]: binds
